Results reported in US20070014799A1.

How the values were obtained:
[1] = target: monoclonal antibody ZAL2-103a producible from the hybridoma ZAL2-103 (FERM BP-8431); assay: competitive EIA: unlabeled human ZAQL-2 against HRP-labeled human ZAQL-2 on ZAL2-103a (50 ng/ml) captured on anti-mouse immunoglobulin plate
[2] = target: monoclonal antibody ZAL2-106a producible from the hybridoma ZAL2-106 (FERM BP-8432); assay: competitive EIA: unlabeled human ZAQL-2 against HRP-labeled human ZAQL-2 on ZAL2-106a (50 ng/ml) captured on anti-mouse immunoglobulin plate

IC50 [1]: 0.8 nM
IC50 [2]: 3 nM
B1: Human ZAQL-2 (human Bv8 maturation peptide) (ligand)
chain: AVITGACDKDSQCGGGMCCAVSIWVKSIRICTPMGKLGDSCHPLTRKVPFFGRRMHHTCPCLPGLACLRTSFNRFICLAQK
